One may read the stoichiometry N as a count of units in the complex or per binding partner. Broadly, the Kd is a measure of binding affinity in units of concentration. For orientation: koff means the rate constant with which the complex falls apart.

Like-named read-outs stand apart in the source and are kept apart here.

Results on three molecules are retold here after PMC4533223, “Structures of CD6 and Its Ligand CD166 Give Insight into Their Interaction” (Structure(London, England:1993), 2015).

Data set [1] deals with the molecule itself. Description: native MS; each protein alone at 20 μM; buffer exchanged into 250 mM ammonium acetate pH 7.6; dimer to monomers.
Data set [2] concerns the molecule itself. As to the kind of experiment: SEC-MALS; Superdex200 10/30 in 50 mM Tris.HCl, pH 7.5, 150 mM NaCl, 0.4 ml/min; CD6 alone 39 µM, CD166 VVC alone 28 µM, equimolar mixture 27 µM each; samples diluted approximately 10-fold on the column. A general note: In gel filtration, larger molecules generally elute earlier.
Data set [3] has as its target human CD6 domain 3 plus stalk fused to rat CD4 domains 3 and 4 (CD6 d3S) (human) (UniProt P30203). Description: SPR; BIAcore 3000; CD6-CD4d3+4 chimeras (d1-3S, d2-3S, d3S) immobilised via the biotin tag to streptavidin, rat CD4 d3+4 in the control flow cell; soluble CD166 VVC injected, top 1.0 μM plus nine two-fold dilutions; 37 °C, HBS-EP, 20 μl/min; equilibrium binding, Langmuir 1:1 fit. In general terms: In SPR one partner is held on a chip, and binding of the other changes the refractive index at the surface.

Data set [4] addresses human CD6 domains 2-3 plus stalk fused to rat CD4 domains 3 and 4 (CD6 d2-3S) (human) (UniProt P30203). The data set is described as above.
Data set [5] deals with human CD6 domain 3 plus stalk fused to rat CD4 domains 3 and 4 (CD6 d3S) (human) (UniProt P30203). The data set is described as above. This is another data set of the same source.
For data set [6], the target named is human CD6 domains 2-3 plus stalk fused to rat CD4 domains 3 and 4 (CD6 d2-3S) (human) (UniProt P30203). Described as above. The source holds these as a separate data set.
For data set [7], the target named is T1, human CD6 domains 1-3 plus stalk fused to rat CD4 domains 3 and 4 (CD6 d1-3S, wild type, S351) (human, UniProt P30203 18-402, biotin on the tag (immobilisation to streptavidin, Figure S1)).
T1 construct: also called CD6-CD4d3+4; CD6 WT; not shown: rat CD4 domains 3 and 4 (CD4d3+4), C-terminal, kept
T1 sequence (looked up): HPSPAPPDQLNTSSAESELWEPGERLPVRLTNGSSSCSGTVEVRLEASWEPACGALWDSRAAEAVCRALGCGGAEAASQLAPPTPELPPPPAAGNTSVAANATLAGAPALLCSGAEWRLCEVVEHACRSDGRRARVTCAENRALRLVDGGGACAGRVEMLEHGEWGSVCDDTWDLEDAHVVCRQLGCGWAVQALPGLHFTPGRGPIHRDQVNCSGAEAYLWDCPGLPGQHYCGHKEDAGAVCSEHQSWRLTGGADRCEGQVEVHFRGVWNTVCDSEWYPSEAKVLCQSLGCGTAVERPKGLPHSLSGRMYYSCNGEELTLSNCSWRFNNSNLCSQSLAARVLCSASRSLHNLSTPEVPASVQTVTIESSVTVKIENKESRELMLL
The data set is described as above. To be noted: one partner purified.

Data set [8] addresses T1, human CD6 domains 1-3 plus stalk fused …. Described as above. The note with it: one partner purified. This is another data set of the same source.
For data set [9] the target is unchanged. Description: SPR; BIAcore 3000; CD6 S351, S351A and S351N (CD4d3+4 chimeras) immobilised via OX68 mAb, rat CD4 d3+4 in the control flow cell; soluble CD166 VVC injected, top 2.5 μM plus nine two-fold dilutions; 25 °C, HBS-EP, 20 μl/min; KD from equilibrium binding (Langmuir 1:1), koff from one phase exponential decay. To be noted: one partner purified.
Data set [10] deals with T2, human CD6-CD4d3+4 chimera, mutant S351A (human, UniProt P30203 18-402, S351A).
T2 construct: human CD6 extracellular region with the membrane proximal stalk, as Dm2; also called CD6 S351A; source: mutant made with a Q5 SDM kit; not shown: rat CD4 domains 3 and 4 (CD4d3+4), C-terminal, kept
T2 sequence (looked up): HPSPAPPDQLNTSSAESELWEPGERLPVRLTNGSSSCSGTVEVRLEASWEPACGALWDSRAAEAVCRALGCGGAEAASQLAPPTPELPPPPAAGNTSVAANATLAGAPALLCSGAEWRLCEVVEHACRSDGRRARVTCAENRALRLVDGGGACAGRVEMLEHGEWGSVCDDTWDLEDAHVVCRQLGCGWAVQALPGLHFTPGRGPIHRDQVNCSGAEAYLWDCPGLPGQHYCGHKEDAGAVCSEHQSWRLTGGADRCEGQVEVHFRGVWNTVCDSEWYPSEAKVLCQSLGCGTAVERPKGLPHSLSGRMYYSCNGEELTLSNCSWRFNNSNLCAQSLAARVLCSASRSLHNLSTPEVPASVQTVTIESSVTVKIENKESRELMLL
The data set is described as above. The note with it: one partner purified.

For data set [11], the target named is T3, human CD6-CD4d3+4 chimera, SNP variant S351N (human, UniProt P30203 18-402, S351N, N-linked glycosylation at N351 (shown by mass spectrometry)).
T3 construct: human CD6 extracellular region with the membrane proximal stalk, as Dm2; S351N is a SNP found in 10% of the genomes analyzed; The 293T cells and the purification with OX68-Sepharose are told for the sample used in the glycosylation mass spectrometry; also called CD6 S351N; CD6-CD4d3+4 S351N; source: transiently expressed in 293T cells; not shown: rat CD4 domains 3 and 4 (CD4d3+4), C-terminal, kept
T3 sequence (looked up): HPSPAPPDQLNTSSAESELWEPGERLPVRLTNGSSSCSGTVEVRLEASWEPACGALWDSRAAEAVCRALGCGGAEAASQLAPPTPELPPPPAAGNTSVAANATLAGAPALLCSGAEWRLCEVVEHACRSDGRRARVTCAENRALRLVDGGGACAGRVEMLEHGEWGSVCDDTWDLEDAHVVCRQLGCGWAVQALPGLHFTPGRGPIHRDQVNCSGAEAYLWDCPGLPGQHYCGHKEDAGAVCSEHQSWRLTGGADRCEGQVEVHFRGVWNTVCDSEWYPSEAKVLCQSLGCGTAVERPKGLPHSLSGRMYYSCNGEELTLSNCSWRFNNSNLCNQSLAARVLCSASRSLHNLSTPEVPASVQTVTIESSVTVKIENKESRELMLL
The description is as above. The note with it: one partner purified.

The target in data set [12] is T1, human CD6 domains 1-3 plus stalk fused …. The description is as above. To be noted: one partner purified. This is another data set of the same source.
Data set [13] addresses T2, human CD6-CD4d3+4 chimera, mutant S351A. The description is as above. To be noted: one partner purified. This is another data set of the same source.
Data set [14] deals with T3, human CD6-CD4d3+4 chimera, SNP variant …. Described as above. To be noted: one partner purified. The source holds these as a separate data set.
The target of data set [15] is T4, human CD6 S351N (SNP variant) (human, UniProt P30203 18-668, S351N, N-linked glycan at N351; N28, N49, N229 glycosylated, N339 appears partially glycosylated).
T4 construct: human CD6 with the SNP S351N, found in 10% of the genomes analyzed; made by mutagenesis; Probably the same chimeric, streptavidin-immobilized format as m3 (surmised); construct in the supplement
T4 sequence (looked up): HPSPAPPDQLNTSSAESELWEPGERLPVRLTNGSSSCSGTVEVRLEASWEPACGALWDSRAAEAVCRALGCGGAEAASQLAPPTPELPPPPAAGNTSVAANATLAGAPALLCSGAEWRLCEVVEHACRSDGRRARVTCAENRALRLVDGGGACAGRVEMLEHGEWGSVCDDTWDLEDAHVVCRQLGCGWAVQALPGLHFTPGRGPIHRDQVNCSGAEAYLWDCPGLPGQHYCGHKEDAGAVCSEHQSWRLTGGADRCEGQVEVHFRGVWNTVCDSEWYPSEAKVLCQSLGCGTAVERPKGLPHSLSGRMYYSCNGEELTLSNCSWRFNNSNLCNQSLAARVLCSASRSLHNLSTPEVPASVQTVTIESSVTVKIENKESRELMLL
Description: SPR; soluble CD166 VVC over streptavidin-immobilized chimeric CD6 forms and variants. The note with it: both partners purified.

B1: human CD6 SRCR domains 1-3, His-tagged (residues 1-364) (domain or fragment, UniProt P30203 18-364, looked up)
chain: HPSPAPPDQLNTSSAESELWEPGERLPVRLTNGSSSCSGTVEVRLEASWEPACGALWDSRAAEAVCRALGCGGAEAASQLAPPTPELPPPPAAGNTSVAANATLAGAPALLCSGAEWRLCEVVEHACRSDGRRARVTCAENRALRLVDGGGACAGRVEMLEHGEWGSVCDDTWDLEDAHVVCRQLGCGWAVQALPGLHFTPGRGPIHRDQVNCSGAEAYLWDCPGLPGQHYCGHKEDAGAVCSEHQSWRLTGGADRCEGQVEVHFRGVWNTVCDSEWYPSEAKVLCQSLGCGTAVERPKGLPHSLSGRMYYSCNGEELTLSNCSWRFNNSNLCSQSLAARVLCSASR
modifications: N-linked glycans (endoglycosidase H sensitive; heterogeneity in mass caused by glycosylation; GlcNAc seen at N229 in the crystal)
notes: signal peptide in the construct; Deglycosylated with EndoHf only for crystallization; source: purified (NiNTA, Superdex200)
As for B1, the “stoichiometry N” value in data set [1] was found to be 2.

B2: soluble recombinant human CD166 VVC (IgSF domains 1-3, two V-like domains and one C-like domain), His-tagged (domain or fragment, UniProt Q13740 28-335, looked up)
chain: WYTVNSAYGDTIIIPCRLDVPQNLMFGKWKYEKPDGSPVFIAFRSSTKKSVQYDDVPEYKDRLNLSENYTLSISNARISDEKRFVCMLVTEDNVFEAPTIVKVFKQPSKPEIVSKALFLETEQLKKLGDCISEDSYPDGNITWYRNGKVLHPLEGAVVIIFKKEMDPVTQLYTMTSTLEYKTTKADIQMPFTCSVTYYGPSGQKTIHSEQAVFDIYYPTEQVTIQVLPPKNAIKEGDNITLKCLGNGNPPPEEFLFYLPGQPEGIRSSNTYTLTDVRRNATGDYKCSLIDKKSMIASTAITVHYLDLS
notes: signal peptide in the construct; human CD166 (ALCAM) residues 1-335 with the native leader; Deglycosylated with EndoHf only for crystallization; also called ALCAM; source: purified (NiNTA, Superdex200)
Regarding B2, the “stoichiometry N” value in [2] was found to be 2. The Kd in data set [3] is 100 nM; in data set [4], 90 nM; in data set [5], 86 nM; in data set [6], 81 nM; in data set [7], 90 nM; in data set [8], 77 nM. For the same molecule, the equilibrium dissociation constant (Kd) is 90 nM in data set [9]; 60 nM in data set [10]; 500 nM in [11]; 120 nM in [12]; 83 nM in data set [13]; 599 nM in [14]. In addition, the koff was 0.07 s⁻¹ in [9]; 0.05 s⁻¹ in data set [10]; 0.4 s⁻¹ in [11]; 0.072 s⁻¹ in data set [12]; 0.049 s⁻¹ in data set [13]; 0.337 s⁻¹ in data set [14].

B3: human CD166 IgSF domains 1-3 (CD166 VVC), His-tagged (residues 1-335) (domain or fragment, UniProt Q13740 28-335, looked up)
chain: WYTVNSAYGDTIIIPCRLDVPQNLMFGKWKYEKPDGSPVFIAFRSSTKKSVQYDDVPEYKDRLNLSENYTLSISNARISDEKRFVCMLVTEDNVFEAPTIVKVFKQPSKPEIVSKALFLETEQLKKLGDCISEDSYPDGNITWYRNGKVLHPLEGAVVIIFKKEMDPVTQLYTMTSTLEYKTTKADIQMPFTCSVTYYGPSGQKTIHSEQAVFDIYYPTEQVTIQVLPPKNAIKEGDNITLKCLGNGNPPPEEFLFYLPGQPEGIRSSNTYTLTDVRRNATGDYKCSLIDKKSMIASTAITVHYLDLS
modifications: N-linked glycans (endoglycosidase H sensitive; heterogeneity in mass caused by glycosylation)
notes: signal peptide in the construct; In the crystal (PDB 5a2f) only domains 1 and 2 were resolved; the third domain was probably cleaved off before crystal growth; protein deglycosylated with EndoHf for crystallization; also called ALCAM; source: purified (NiNTA, Superdex200)
In the case of B3, the “fold weaker affinity than for CD6 S351” value in data set [15] was 10 fold. The “stoichiometry N” value in data set [1] stood at 2.
